# In the supplement of paper PMC9112550, “Optimization of the antimicrobial peptide Bac7 by deep mutational scanning” (BMC Biology, 2022):
# Test system: Escherichia coli TOP10
# Test: shrunken log2 fold change of peptide-encoding DNA abundance (4.5 h post-induction vs induction); higher = less antimicrobial activity (less host growth inhibition)
# Conditions: time post-induction: 4.5 h; library: site-saturation at positions 5, 18, 19, 20
# 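Further: peptides expressed intracellularly from a pBAD plasmid library in pooled LB shake-flask culture, induced with 0.3% L-arabinose, DNA abundance read by NGS, three biological replicates, DESeq2 with apeglm shrinkage.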
row,Sequence,shrunken log2 fold change
1,RRIRFRPPRLPRPRPRPLAHPRP,-0.13
2,RRIRFRPPRLPRPRPRPLAPPRP,0.193
3,RRIRFRPPRLPRPRPRPLEEPRP,-0.0138
4,RRIRFRPPRLPRPRPRPLELPRP,0.0344
5,RRIRFRPPRLPRPRPRPLESPRP,-0.00313
6,RRIRFRPPRLPRPRPRPLFFPRP,-0.259
7,RRIRFRPPRLPRPRPRPLFQPRP,-0.446
8,RRIRFRPPRLPRPRPRPLGWPRP,0.494
9,RRIRFRPPRLPRPRPRPLKMPRP,-0.428
10,RRIRFRPPRLPRPRPRPLLEPRP,-0.0853
11,RRIRFRPPRLPRPRPRPLLPPRP,-0.142
12,RRIRFRPPRLPRPRPRPLMEPRP,-0.00741
13,RRIRFRPPRLPRPRPRPLNWPRP,-0.109
14,RRIRFRPPRLPRPRPRPLQHPRP,-0.134
15,RRIRFRPPRLPRPRPRPMAAPRP,-0.0736
16,RRIRFRPPRLPRPRPRPMASPRP,0.037
17,RRIRFRPPRLPRPRPRPMCSPRP,-0.687
18,RRIRFRPPRLPRPRPRPMEYPRP,0.0429
19,RRIRFRPPRLPRPRPRPMGSPRP,-0.22
20,RRIRFRPPRLPRPRPRPMGTPRP,-0.0834
21,RRIRFRPPRLPRPRPRPMHGPRP,-0.0727
22,RRIRFRPPRLPRPRPRPMIRPRP,-0.163
23,RRIRFRPPRLPRPRPRPMIWPRP,-0.101
24,RRIRFRPPRLPRPRPRPMKAPRP,0.035
25,RRIRFRPPRLPRPRPRPMLHPRP,-0.376

row,Sequence,shrunken log2 fold change
1,RRIRFRPPRLPRPRPRPMLQPRP,-0.152
2,RRIRFRPPRLPRPRPRPMLSPRP,-0.0375
3,RRIRFRPPRLPRPRPRPMLVPRP,-0.0924
4,RRIRFRPPRLPRPRPRPMMRPRP,0.126
5,RRIRFRPPRLPRPRPRPMNKPRP,-0.65
6,RRIRFRPPRLPRPRPRPMNSPRP,-0.325
7,RRIRFRPPRLPRPRPRPMPKPRP,0.856
8,RRIRFRPPRLPRPRPRPMQMPRP,0.142
9,RRIRFRPPRLPRPRPRPMQQPRP,-0.0268
10,RRIRFRPPRLPRPRPRPMRTPRP,0.547
11,RRIRFRPPRLPRPRPRPMSQPRP,0.0397
12,RRIRFRPPRLPRPRPRPMSWPRP,0.131
13,RRIRFRPPRLPRPRPRPMTDPRP,-0.269
14,RRIRFRPPRLPRPRPRPMTLPRP,-0.107
15,RRIRFRPPRLPRPRPRPMTNPRP,-0.2
16,RRIRFRPPRLPRPRPRPMVKPRP,-0.219
17,RRIRFRPPRLPRPRPRPMWDPRP,-0.469
18,RRIRFRPPRLPRPRPRPMYFPRP,-0.331
19,RRIRFRPPRLPRPRPRPMYMPRP,-0.183
20,RRIRFRPPRLPRPRPRPMYNPRP,-0.294
21,RRIRFRPPRLPRPRPRPNAFPRP,0.00827
22,RRIRFRPPRLPRPRPRPNAGPRP,-0.0253
23,RRIRFRPPRLPRPRPRPNAHPRP,0.0459
24,RRIRFRPPRLPRPRPRPNAWPRP,-0.171
25,RRIRFRPPRLPRPRPRPNCLPRP,-0.0273

row,Sequence,shrunken log2 fold change
1,RRIRFRPPRLPRPRPRPNEEPRP,-0.0458
2,RRIRFRPPRLPRPRPRPNGEPRP,0.0684
3,RRIRFRPPRLPRPRPRPNHCPRP,-0.0425
4,RRIRFRPPRLPRPRPRPNHKPRP,-0.405
5,RRIRFRPPRLPRPRPRPNIKPRP,-0.504
6,RRIRFRPPRLPRPRPRPNKWPRP,-0.266
7,RRIRFRPPRLPRPRPRPNLSPRP,-0.259
8,RRIRFRPPRLPRPRPRPNRAPRP,0.091
9,RRIRFRPPRLPRPRPRPNRHPRP,-0.874
10,RRIRFRPPRLPRPRPRPNRRPRP,0.048
11,RRIRFRPPRLPRPRPRPNSWPRP,-0.0266
12,RRIRFRPPRLPRPRPRPNSYPRP,-0.372
13,RRIRFRPPRLPRPRPRPNWNPRP,-0.42
14,RRIRFRPPRLPRPRPRPNWVPRP,-0.126
15,RRIRFRPPRLPRPRPRPNYAPRP,-0.127
16,RRIRFRPPRLPRPRPRPNYNPRP,-1.12
17,RRIRFRPPRLPRPRPRPNYYPRP,-0.613
18,RRIRFRPPRLPRPRPRPPALPRP,0.509
19,RRIRFRPPRLPRPRPRPPANPRP,0.858
20,RRIRFRPPRLPRPRPRPPAQPRP,1.02
21,RRIRFRPPRLPRPRPRPPARPRP,0.694
22,RRIRFRPPRLPRPRPRPPATPRP,0.562
23,RRIRFRPPRLPRPRPRPPCAPRP,0.576
24,RRIRFRPPRLPRPRPRPPCPPRP,0.46
25,RRIRFRPPRLPRPRPRPPDVPRP,0.0274
